This assay concerns the target EphrinA2 (EphA2) receptor tyrosine kinase (human (endogenous in HFF)) (UniProt P29317). Briefly: co-IP; lysates of c-Cbl siRNA-transfected HFF cells infected with KSHV for 5 min; IP with anti-EphA2 antibody, Western blot for clathrin; compared with control siRNA cells.

“clathrin heavy chain (from UniProt Q00610 1-1675) (natural protein)” displayed a fold reduction of the co-IP in c-Cbl siRNA cells against control siRNA cells of 8 fold.

Source of the values: article PMC3715429.
